# Data from patent US9217013B2, “Treatment of amyloidoses using myelin basic protein and fragments thereof” (The Research Foundation for the State University of New York, priority 2008, dated 2015).
# “Also recorded” adds a separate entry of the source.
# B1: myelin basic protein (protein)
# chain: ASQKRPSQRHGSKYLATASTMDHARHGFLPRHRDTGILDSIGRFFGGDRGAPKRGSGKDSHHPARTAHYGSLPQKSHGRTQDENPVVHFFKNIVTPRTPPPSQGKGRGLSLSRFSWGAEGQRPGFGYGGRASDYKSAHKGFKGVDAQGTLSKIFKLGGRDSRSGSPMARR
# notes: myelin basic protein, major form about 18.5 Kd (170 residues); purified protein
# How the values were obtained:
# Aβ40DI [1] = molecular target: T1, Aβ40DI (Homo sapiens, UniProt P05067, D694N/E693Q); assay: Thioflavin T fluorescence assay of Aβ40DI fibril formation; assay type: biochemical; settings: 12.5 μM Aβ40DI, 1.56 μM protein, PBS, 37° C.
# Experimental: FIG. 16 Thioflavin T analysis of inhibition of CAA mutant Aβ fibril formation by MBP. Aβ40DI at a concentration of 12.5 μM in PBS in the absence (□) or presence of 1.56 μM MBP(□) or bovine a-lactalbumin (Lalb; □) as a control. At specific time points, aliquots were collected from each sample and analyzed by thioflavin T binding and fluorescence to determine fibrillar assembly. Data represent the means±S.D. of triplicate samples. A.U., arbitrary units.
# The Aβ B binding properties of the exemplary fragments of MBP described herein were determined in a thioflavin T fluorescence assay as follows: Lyophilized Aβ peptides were first resuspended with Me2SO to 2.5 mM, diluted to 12.5 μM in PBS, and then incubated at 37° C. with rocking either alone or with 1.56 μM MBP or bovine α-lactalbumin. Control samples containing 0.5% Me2SO and 1.56 μM MBP or lactalbumin in PBS were also included. At each time point, 100 μl samples of each reaction were placed in a 96-well microplate in triplicate, and 5 μl of 100 µM thioflavin T was added. The plate was mixed and incubated at 22° C. in the dark for 10 min. Fluorescence was measured at 490 nm with an excitation wavelength of 446 nm in a SpectraMax spectrofluorometer (Molecular Devices, Sunnyvale, Calif.) using SoftMax Pro control software. It is apparent that the method enables persons of skill in the art to determine the binding properties of MBP, variants thereof, and fragments thereof for any Aβ-peptide, including mutants thereof.
# Aβ40DI [2] = molecular target: T1, Aβ40DI; assay: Affinity chromatography of human brain homogenate on Aβ40DI column; assay type: binding
# Experimental: For some embodiments of the invention, it may be advantageous to work with purified isolates of mutant and wild-type forms of Aβ. The affinity chromatography method used in the development of embodiments of the instant invention to obtain such isolates is exemplary: To prepare affinity resins, biotinylated wild-type Aβ40 peptide (Aβ40WT) and Aβ40DI were each redissolved in 20 mM NaHCO3 buffer (pH 8.5) and applied to ImmunoPure immobilized streptavidin beads (Pierce) following the manufacturer's instructions. Immobilized ligands were cross-linked with 2 mM bis(sulfosuccinimidyl) suberate (Pierce) for 30 min with rocking at room temperature in 20 mM NaHCO3 (pH 8.5). Crosslinking reactions were stopped by the addition of 1 M Tris-HCl (pH 7.4) to a final concentration of 20 mM. Homogenates of normal human brain frontal cortex (which may obtained as biopsies) were prepared in Tris-buffered saline (50 mM Tris-HCl and 200 mM NaCl (pH 7.4)) containing complete protease inhibitor cocktail (Roche). Homogenates were centrifuged at 12,000×g for 30 min, and supernatants were loaded onto Tris-buffered saline-equilibrated affinity columns (0.8×4 cm) under gravity flow. […] Fractions were analyzed by SDS-PAGE on 10-20% Tris/glycine gradient gels. […]
molecule,measurement,setting,value
B1,inhibition of Aβ40DI fibril assembly (thioflavin T),Aβ40DI [1],completely inhibits; also recorded: inhibit
same,capture on Aβ40DI affinity column,Aβ40DI [2],captured; also recorded: preferentially binds
